US8986682B2, “Method to increase the absorption of unsaturated fatty acids by human infants” (Swedish Orphan Biovitrum AB (publ), priority 2010, dated 2015)
Several values for one entry are separate records, joined by “and”; a condition that tells them apart may be missing. Identical values can stand only once.

Experiments:
[1] = test system: preterm infants born before week 32 of gestational age; assay: Growth velocity (body weight) in phase II crossover studies BVT.BSSL-020/-021; format: in vivo, human; conditions: for Growth velocity, LS Mean / Growth velocity, LS Mean Difference (rhBSSL − Placebo) / Growth velocity, Maximum / Growth velocity, Mean (SD) / Growth velocity, Median / Growth velocity, Minimum: 7 days
Experimental: Patients were randomized to infant formula/pasteurized breast milk supplemented with rhBSSL at a final concentration of 0.15 g/L, or to infant formula/pasteurized breast milk “supplemented” with sterile water for injection (as placebo) for the first 7 days. After a washout period of 2 days, the patient was “crossed over” to the other treatment regimen during a second 7-day treatment period. Collection of feces samples for CFA assessment were performed during the last 3 days (72 hours) of each treatment period.
The patient's weight in grams was recorded each day using a scale with an accuracy of at least +/−5 grams and entered on the CRF. To the extent possible, body weight was measured at approximately the same time each day.
• Growth velocity (g/kg/day): Growth velocity was defined as, for the first period, (the weight at the last assessment in the first period minus the weight at Day 1) divided by [the weight at Day 1 and (the day of the last assessment in the first period minus 1)], and for the second period, (the weight at the last assessment in the second period minus the weight at Day 10) divided by [the weight at Day 10 and (the day of the last assessment in the second period minus 10)]. The Secondary Efficacy Variables were: • CFA measured in food and feces samples collected between the tracer markers during the final 3 days (72 hours) of each treatment period. • CFA was calculated as [Fat (g/period) in food—Fat (g/period) in stool]/[Fat (g/period) in food)]*100. • Fat in food was calculated as ([Food (mL)−Vomit (mL)]*[Fat Content in Food (g/100 mL)]/100. This formula was based on the following assumptions: (a) fat content in vomit is the same as the fat content in food; (b) density of vomit is the same as density of food. • Fat content of food (formula or pasteurized breast milk) was determined using the same method as for the stool analysis and was performed by the same lab. Food (mL) and Vomit (mL) were calculated as the total amount of food or vomit recorded on or after the first tracer ingestion and prior to the second tracer ingestion. Vomit was recorded in grams on the CRF. Therefore, Vomit (mL) was calculated as Vomit (g)/Density. • There was one difference in the calculation of fat (g/period) in stool and fat content in food (g/100 mL) between the two studies. That difference relates to different contents of fatty acids in milk and formula, as described below: […]
The primary efficacy outcome, growth velocity, was analyzed by an analysis of variance (ANOVA) with treatment, regimen (pasteurized breast milk or infant formula), period, sequence, and patient nested within regimen and sequence as factors. All main effects were tested against the residual mean square from the ANOVA model.

[2] = test system: preterm infants born before week 32 of gestational age; conditions: in vivo
Excerpt: (§1) The adverse event (AE) reporting period in each study began upon administration of the first dose (Day 1) of investigational medication and ended at the Follow-up Visit (1 week±3 days after the last dose of study drug intake). All AEs that occurred in a patient during the adverse event reporting period were to be reported, whether or not the event was considered medication/product related. In addition, any known untoward event that occurred subsequent to the AE reporting period that the investigator assessed as possibly, probably, or definitely related to the investigational product were also to be reported as an AE.
(§2) MedDRA dictionary version 10.0 was used to classify all AEs reported during either study by system organ class (SOC) and preferred term (PT). All summary tables included counts of patients with treatment-emergent adverse events (TEAEs). The assessment of TEAEs was made in each individual study. […] All TEAEs, treatment related TEAEs (definite, probable, and possible), SAEs, and TEAEs leading to withdrawal of study drug were summarized by MedDRA SOC, PT, and treatment. Both the incidence (proportion of patients) and number of each TEAE were summarized. Additionally, TEAEs were summarized by maximum severity (mild, moderate, or severe). An overall summary of TEAEs was presented by treatment sequence and total and presented the number (%) of patients with TEAEs for each treatment sequence allocated to (1) BSSL only; (2) Placebo only; (3) Both BSSL and placebo; and (4) Neither Treatment.

[3] = test system: preterm infants born before week 32 of gestational age; assay: Treatment-emergent adverse events, studies BVT.BSSL-020/-021
Excerpt: as §1, §2

[4] = BVT.BSSL-020 (infant formula), FAS, 0.15 g/L
[5] = BVT.BSSL-020 (infant formula), PP, 0.15 g/L
[6] = BVT.BSSL-021 (pasteurized breast milk), FAS, 0.15 g/L
[7] = BVT.BSSL-021 (pasteurized breast milk), PP, 0.15 g/L
[8] = combined studies 020+021, FAS, 0.15 g/L in feed
[9] = combined studies 020+021, PP, 0.15 g/L in feed
[10] = Safety Analysis Set, rhBSSL N = 61
[11] = TEAE, Safety Analysis Set, rhBSSL N = 61

B1: rhBSSL: recombinant human bile-salt-stimulated lipase, SEQ ID. NO. 1, expressed from recombinant CHO cells; used in both clinical trials (protein, listed as Homo sapiens)
chain: AKLGAVYTEGGFVEGVNKKLGLLGDSVDIFKGIPFAAPTKALENPQPHPGWQGTLKAKNFKKRCLQATITQDSTYGDEDCLYLNIWVPQGRKQVSRDLPVMIWIYGGAFLMGSGHGANFLNNYLYDGEEIATRGNVIVVTFNYRVGPLGFLSTGDANLPGNYGLRDQHMAIAWVKRNIAAFGGDPNNITLFGESAGGASVSLQTLSPYNKGLIRRAISQSGVALSPWVIQKNPLFWAKKVAEKVGCPVGDAARMAQCLKVTDPRALTLAYKVPLAGLEYPMLHYVGFVPVIDGDFIPADPINLYANAADIDYIAGTNNMDGHIFASIDMPAINKGNKKVTEEDFYKLVSEFTITKGLRGAKTTFDVYTESWAQDPSQENKKKTVVDFETDVLFLVPTEIALAQHRANAKSAKTYAYLFSHPSRMPVYPKWVGADHADDIQYVFGKPFATPTGYRPQDRTVSKAMIAYWTNFAKTGDPNMGDSAVPTHWEPYTTENSGYLEITKKMGSSSMKRSLRTNFLRYWTLTYLALPTVTDQEATPVPPTGDSEATPVPPTGDSETAPVPPTGDSGAPPVPPTGDSGAPPVPPTGDSGAPPVPPTGDSGAPPVPPTGDSGAPPVPPTGDSGAPPVPPTGDSGAPPVPPTGDAGPPPVPPTGDSGAPPVPPTGDSGAPPVTPTGDSETAPVPPTGDSGAPPVPPTGDSEAAPVPPTDDSKEAQMPAVIRF
Growth velocity, LS Mean [1, 4]: 18.05 g/kg/day | Growth velocity, LS Mean Difference (rhBSSL − Placebo) [1, 4]: 3.74 g/kg/day | Growth velocity, Maximum [1, 4]: 25.5 g/kg/day | Growth velocity, Mean (SD) [1, 4]: 18.06 g/kg/day and 18.06 (3.964) g/kg/day | Growth velocity, Median [1, 4]: 18.39 g/kg/day | Growth velocity, Minimum [1, 4]: 9.2 g/kg/day | Growth velocity, LS Mean [1, 5]: 17.75 g/kg/day | Growth velocity, LS Mean Difference (rhBSSL − Placebo) [1, 5]: 2.30 g/kg/day | Growth velocity, Maximum [1, 5]: 24.0 g/kg/day | Growth velocity, Mean (SD) [1, 5]: 17.79 (4.013) g/kg/day | Growth velocity, Median [1, 5]: 17.98 g/kg/day | Growth velocity, Minimum [1, 5]: 9.2 g/kg/day | Growth velocity, LS Mean [1, 6]: 15.58 g/kg/day | Growth velocity, LS Mean Difference (rhBSSL − Placebo) [1, 6]: 1.95 g/kg/day | Growth velocity, Maximum [1, 6]: 26.5 g/kg/day | Growth velocity, Mean (SD) [1, 6]: 15.54 g/kg/day and 15.54 (4.880) g/kg/day | Growth velocity, Median [1, 6]: 15.95 g/kg/day | Growth velocity, Minimum [1, 6]: 7.5 g/kg/day | Growth velocity, LS Mean [1, 7]: 16.47 g/kg/day | Growth velocity, LS Mean Difference (rhBSSL − Placebo) [1, 7]: 1.71 g/kg/day | Growth velocity, Maximum [1, 7]: 26.5 g/kg/day | Growth velocity, Mean (SD) [1, 7]: 16.16 (4.856) g/kg/day | Growth velocity, Median [1, 7]: 16.80 g/kg/day | Growth velocity, Minimum [1, 7]: 8.3 g/kg/day | Growth velocity, LS Mean [1, 8]: 16.86 g/kg/day | Growth velocity, LS Mean Difference (rhBSSL − Placebo) [1, 8]: 2.93 g/kg/day | Growth velocity, Maximum [1, 8]: 26.5 g/kg/day | Growth velocity, Mean (SD) [1, 8]: 16.92 (4.540) g/kg/day | Growth velocity, Median [1, 8]: 16.84 g/kg/day | Growth velocity, Minimum [1, 8]: 7.5 g/kg/day | Growth velocity, LS Mean [1, 9]: 17.15 g/kg/day | Growth velocity, LS Mean Difference (rhBSSL − Placebo) [1, 9]: 2.08 g/kg/day | Growth velocity, Maximum [1, 9]: 26.5 g/kg/day | Growth velocity, Mean (SD) [1, 9]: 17.08 (4.424) g/kg/day | Growth velocity, Median [1, 9]: 16.84 g/kg/day | Growth velocity, Minimum [1, 9]: 8.3 g/kg/day | Relative increase of growth velocity compared to the LS mean for placebo ([1]; combined studies, PP): 13.8% | Relative increase of growth velocity compared to the LS mean for placebo ([1]; formula-fed infants (BVT.BSSL-020), PP): 14.9% | Urinary tract infection, n (%) of Patients [2]: 1 (1.6%) | Patients who died, n (%) of Patients [3, 10]: 0 | Patients with any TEAE, n (%) of Patients [3, 10]: 29 (47.5%) | Patients with any serious TEAE, n (%) of Patients [3, 10]: 0 | Patients with any severe TEAE, n (%) of Patients [3, 10]: 1 (1.6%) | Anemia neonatal, n (%) of Patients [3, 11]: 2 (3.3%) | Anemia, n (%) of Patients [3, 11]: 3 (4.9%) | Bradycardia, n (%) of Patients [3, 11]: 1 (1.6%) | Cardiac murmur, n (%) of Patients [3, 11]: 4 (6.6%) | Dermatitis diaper, n (%) of Patients [3, 11]: 13 (21.3%) | Hypokalemia, n (%) of Patients [3, 11]: 3 (4.9%) | Thrombocythemia, n (%) of Patients [3, 11]: 0 | Tolerability when added to infant formula or pasteurized breast milk ([3]; preterm infants, combined analysis): well tolerated
